Series [1] has as its system MS2 coat protein. The experiment in a line: apparent KD of MS2 coat protein; designed switch direction (-1 OFF switch, 1 ON switch): 1; higher = weaker reporter binding. Conditions: Eterna round: R98. The protocol:
(§1)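 RNA-MaP: designed FMN/MS2 RNA switches (84 nt design region) are transcribed on-chip within common flanks and titrated with SNAP-549-labelled MS2 coat protein (about 1-3000 nM) in 100 mM Tris pH 7.5, 80 mM KCl, 4 mM MgCl2, without or with 200 uM FMN. Median apparent KD per design; activation ratio = KD,OFF / KD,ON.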

In series [2] the test system is MS2 coat protein. The experiment in a line: apparent KD of MS2 coat protein; higher = weaker reporter binding. The note with it: Eterna round: R101. The protocol: as §1

With “AAGUUUUUACAAGGAUAUCAGUUGUUUAUAAAUUAAACAUGAGGAUCACCCAUGUAACAAAGGAGUGAGAAGGUGUGUUGGAAA [JR_SSNG2_Sub089]”, the “apparent KD of MS2 coat protein” value in the series with MS2 coat protein [1] (input ligand: FMN 200 uM) came to 0.319 µM; in the series on MS2 coat protein [1] (input ligand: none), 0.408 µM.

On to “ACAUAAUGGUGAGGAUAUGCACAGGAUCACCGUGUAGAAGGCAUCAGGUAGAAGGUGCAGAGGAUCACCCUGUAAGGAUAUAUC [pwkr2 ssNG1 DX.19]”, for which the “apparent KD of MS2 coat protein” value is 0.0946 µM in the series with MS2 coat protein [1] (input ligand: FMN 200 uM) and 0.562 µM with MS2 coat protein [1] (input ligand: none).

Take “CACGUCCUCACAGGAUAUGCUGGACUUUGUCCAGCAGAAGGGUGAACAUGAGGAUCACCCAUGUAAAGGACGUGUAUAUUUAAU [Denovo 23]”: the “apparent KD of MS2 coat protein” value in the series with MS2 coat protein [1] (input ligand: FMN 200 uM) stood at 0.0725 µM; in the series on MS2 coat protein [1] (input ligand: none), 0.587 µM.

Take “CAUGUCCUCACAGGAUAUGCUGGACUUUGUCCAGCAGAAGGGUGAACAUGAGGAUCACCCAUGUAAUGGACAUGUAUAUUUAAG [Mat - Same State NG 1 - Eli mod - D98]”: the “apparent KD of MS2 coat protein” value in the series with MS2 coat protein [1] (input ligand: FMN 200 uM) was 0.0494 µM; in the series on MS2 coat protein [1] (input ligand: none), 0.902 µM.

On to “CCUGACACUUGAGGAUAUGCUCAGGAAUACUGAGCAGAAGGCAGGAAAACCUGAGGAUCACCCAGGUAAGUCAGGAAUAAUAAA [Same State NG1 - A3C, U17G Submission 3A]”, for which the “apparent KD of MS2 coat protein” value was 0.0172 µM with MS2 coat protein [1] (input ligand: FMN 200 uM) and 0.0207 µM in the series with MS2 coat protein [1] (input ligand: none).

As for “CUGCAAUUCUUAGGAUAUGCUCAGGAAUACUGAGCAGAAGGAAGAUAUACCUGAGGAUCACCCAGGUUAAACUGGAGCAGAAUA [Same State NG1 - A3C, U17G Submission 8A]”, the “apparent KD of MS2 coat protein” value with MS2 coat protein [1] (input ligand: FMN 200 uM) is 0.0322 µM; in the series with MS2 coat protein [1] (input ligand: none), 0.181 µM.

Turning to “GAGCUGCUCUGAGGAUAUGGGUUUAUAAGGACGGGCACGCCCGACAUGAGGAUCACCCAUGUCUACCAGAAGGCAGAAAAGUUC [Mamain]”, the “apparent KD of MS2 coat protein” value with MS2 coat protein [1] (input ligand: FMN 200 uM) came out at 0.394 µM; in the series on MS2 coat protein [1] (input ligand: none), 0.171 µM.

With “GCAGAAGGUGCGGAGGAUCACCCUGUAAGGAUAUGCAUUAGCAAGGAUAUACAGAGGAUCACCCUGUAGAAGGUGCACUACUCU [pwkr2 ssNG3 DX.1]”, the “apparent KD of MS2 coat protein” value in the series with MS2 coat protein [1] (input ligand: FMN 200 uM) worked out at 1.14 µM; in the series with MS2 coat protein [1] (input ligand: none), 1.43 µM.

With “GCAGAAGGUGCGGAGGAUCACCCUGUAAGGAUAUGCAUUAGCAAGGAUAUACAGAGGAUCACCCUGUAGAAGGUGCACUUCUGC [pwkr2 ssNG3 DX.9]”, the “apparent KD of MS2 coat protein” value turned out to be 1.31 µM in the series with MS2 coat protein [1] (input ligand: FMN 200 uM) and 0.897 µM in the series with MS2 coat protein [1] (input ligand: none).

As to “GCGUCCCGCAGAGGAUAUGUUGUUCGGCCUACAUGAGGAUCACCCAUGUCAAAGGGCUGAUCCCAACAGAAGGCUGAAGGAUAC [Qumarera]”, the “apparent KD of MS2 coat protein” value with MS2 coat protein [1] (input ligand: FMN 200 uM) stood at 0.00873 µM; with MS2 coat protein [1] (input ligand: none) it was 0.064 µM.

Consider “GCUCUCACUUGAGGAUAUCGAGUGGAUAACACUCGAGAAGGCAGGGAAACCUGAGGAUCACCCAGGUAACUGGAAAGAGAGCAA [Same State NG1 - A3C, U17G Submission 5D]”, for which the “apparent KD of MS2 coat protein” value was found to be 0.0204 µM in the series with MS2 coat protein [1] (input ligand: FMN 200 uM) and 0.0318 µM in the series on MS2 coat protein [1] (input ligand: none).

On to “GCUUGCGACGCAGGAUAUGGGUGCCUGCACACGAGGAUCACCCGUGUAGAGGAACGGAUUACGUCUCAGAAGGGCGUGGCAGGC [United States 4 - Jieux - Same State NG 2]”, for which the “apparent KD of MS2 coat protein” value is 0.0218 µM with MS2 coat protein [1] (input ligand: FMN 200 uM) and 0.0889 µM in the series with MS2 coat protein [1] (input ligand: none).

As for “GGAGACCUCACAGGAUAUGCUGGACUUUGUCCAGCAGAAGGGUGACUAACAUGAGGAUCACCCAUGUAGGUCUCCAAAUUUAAU [Denovo 58]”, the “apparent KD of MS2 coat protein” value with MS2 coat protein [1] (input ligand: FMN 200 uM) was 0.631 µM; in the series on MS2 coat protein [1] (input ligand: none), 0.0408 µM.

For the sequence “GGAGCACACAUUAACAUGAGGAUCACCCAUGUCAAAAGACAUGAGGAUAUGGAUCCGAAAAGGAUCCAGAAGGCAUGGUGCUCC [EliMod 8 - Jieux - Same State NG 3]”, the results for the “apparent KD of MS2 coat protein” value in the series on MS2 coat protein [1] (input ligand: FMN 200 uM) and with MS2 coat protein [1] (input ligand: none) were 0.0351 µM and 0.598 µM, respectively.

Regarding “UUGGUUGUCGUAGGAUAUGUAGGAUAUUCCUACAUGAGGAUCACCCAUGUUCGCAUGGAAGAAGGACAGAAGGACGAUGACCAU [salish99_SSNG2_001 #endbits investigation] (puzzle (switch architecture): Same State NG 2)”, the “apparent KD of MS2 coat protein” value in the series with MS2 coat protein [2] (input ligand: FMN 200 uM) was found to be 0.00952 µM; in the series on MS2 coat protein [2] (input ligand: none) it was 1.28 µM.

Source of the values: the supplement of paper PMC9170038.
